From paper PMC6220978, “Induced conformational changes activate the peptidoglycan synthase PBP1B” (Molecular Microbiology, 2018)
Substitutions are numbered along the chain they refer to.

Columns and labels:
Assay in all cases: SPR; PBP1B versions immobilised to the chip surface; LpoB injected from 19.5 nM to 10 μM; apparent KD by non-linear regression, at least three independent experiments
Conditions in all cases: both partners purified
PBP1B D160C/K437C = biological target: T1, PBP1B D160C/K437C (E. coli, UniProt P02919 46-844, D160C | K437C)
T1 construct: PBP1B, E. coli, residues 46-844, made by mutagenesis of pDML924; Disulphide bridge between C160 and C437 (no free thiol groups detected); reduced in the SPR assay with 2 mM TCEP; source: E. coli BL21(DE3), purified (membrane extract, HisTrap, thrombin, HiTrap SP ion exchange)
T1 sequence (looked up): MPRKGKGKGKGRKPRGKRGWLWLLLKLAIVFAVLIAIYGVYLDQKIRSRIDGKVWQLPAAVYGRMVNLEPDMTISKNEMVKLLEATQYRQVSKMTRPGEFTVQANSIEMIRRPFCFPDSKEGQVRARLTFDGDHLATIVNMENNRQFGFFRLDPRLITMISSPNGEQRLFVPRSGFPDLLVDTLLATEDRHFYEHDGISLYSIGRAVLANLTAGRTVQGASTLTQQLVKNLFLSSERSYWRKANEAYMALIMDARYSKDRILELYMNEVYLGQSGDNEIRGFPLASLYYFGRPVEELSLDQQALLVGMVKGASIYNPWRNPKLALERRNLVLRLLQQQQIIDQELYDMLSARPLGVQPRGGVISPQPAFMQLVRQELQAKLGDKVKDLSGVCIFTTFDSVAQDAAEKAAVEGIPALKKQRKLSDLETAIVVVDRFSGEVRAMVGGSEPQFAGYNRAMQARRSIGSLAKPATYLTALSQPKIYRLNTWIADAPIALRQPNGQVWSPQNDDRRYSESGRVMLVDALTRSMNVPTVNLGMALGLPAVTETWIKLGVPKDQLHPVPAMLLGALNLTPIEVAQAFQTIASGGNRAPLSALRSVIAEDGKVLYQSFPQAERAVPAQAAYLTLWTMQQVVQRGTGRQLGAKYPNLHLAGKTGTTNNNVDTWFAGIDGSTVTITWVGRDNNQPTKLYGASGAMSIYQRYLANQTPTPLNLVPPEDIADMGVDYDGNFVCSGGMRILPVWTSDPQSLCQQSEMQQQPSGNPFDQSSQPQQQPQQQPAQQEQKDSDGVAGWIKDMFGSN

PBP1B D443A = biological target: T2, PBP1B D443A (E. coli, UniProt P02919 46-844, D443A)
T2 construct: PBP1B, E. coli, residues 46-844, made by mutagenesis of pDML924; source: E. coli BL21(DE3), purified (membrane extract, HisTrap, thrombin, HiTrap SP ion exchange)
T2 sequence (looked up): T1 sequence (looked up) with C115D, C392K, D398A

[1] = biological target: T3, PBP1B (wild type, PBP1B^46-844) (E. coli, UniProt P02919 46-844)
T3 construct: PBP1B, E. coli, residues 46-844, encoded on pDML924; Immobilised on the SPR chip as in Egan et al. 2014 / Gray et al. 2015; also called WT PBP1B; WT; source: E. coli BL21(DE3), purified (membrane extract, HisTrap, thrombin, HiTrap SP ion exchange)
T3 sequence (looked up): T1 sequence (looked up) with C115D, C392K

B1: LpoB (natural protein, E. coli)
chain: VGQREPAPVEEVKPAPEQPAEPQQPVPTVPSVPTIPQQPGPIEHEDQTAPPAPHIRHYDWNGAMQPMVSKMLGADGVTAGSVLLVDSVNNRTNGSLNAAEATETLRNALANNGKFTLVSAQQLSMAKQQLGLSPQDSLGTRSKAIGIARNVGAHYVLYSSASGNVNAPTLQMQLMLVQTGEIIWSGKGAVSQQ
notes: LpoB, E. coli; also called lipoprotein LpoB; source: E. coli BL21(DE3), purified (HisTrap, Superdex 200), as in Egan et al. 2014
Binder B1 has a Kd (PBP1B D160C/K437C) of 3970 nM, a Kd (PBP1B D443A) of 289 nM and a Kd [1] of 491 nM.
